The target in assay [1] is T1, human CD3 on cells (human PBMC; Jurkat-CD3-NFAT and TCR/CD3 Effector reporter cells) (human, UniProt P07766 23-207; P04234 22-171; P09693 23-182).
T1 construct: whole, on cells; The CD3 complex as carried by T cells; also called huPBMC; CD3 receptor
In words: FACS on human PBMC, PE goat anti-human IgG Fc secondary antibody, geometric mean fluorescence. Here is the method:
FACS was used to evaluate the binding activity of 153A6B1, 155A9B1, and 192A7B9 chimeric mAbs on human or cynomolgus PBMC. SP34 (Biointron, B6762) and OKT3 (Biointron, B6928) served as the benchmark controls.
Briefly, cynoPBMCs were first incubated with 3-fold serially diluted 153A6B1, 155A9B1, and 192A7B9 chimeric mAbs starting at 10 nM at 4° C. for 30 mins. While huPBMCs were incubated with 4-fold serially diluted 153A6B1, 155A9B1, and 192A7B9 chimeric mAbs starting at 10 nM at 4° C. for 30 mins. After washing by PBS, PE Goat anti-Human IgG Fc Secondary Antibody (eBioscience™, Invitrogen) was added to each well and incubated at 4° C. for 30 mins. Samples were washed twice with FACS buffer. The mean florescence intensity (MFI) of PE was evaluated by MACSQuant Analyzer 16.

Assay [2] concerns the target human CD3 on cells (human PBMC; Jurkat-CD3-NFAT and TCR/CD3 Effector reporter cells) (human) (UniProt P07766). Nature of the assay: cell-based or functional assay.

Residue numbers refer to the chain shown, from its start.

Chain of human CD3 on cells (human PBMC; Jurkat-CD3-NFAT and TCR/CD3 Effector reporter cells) (human) (P07766 23-207, chain 1 of 3): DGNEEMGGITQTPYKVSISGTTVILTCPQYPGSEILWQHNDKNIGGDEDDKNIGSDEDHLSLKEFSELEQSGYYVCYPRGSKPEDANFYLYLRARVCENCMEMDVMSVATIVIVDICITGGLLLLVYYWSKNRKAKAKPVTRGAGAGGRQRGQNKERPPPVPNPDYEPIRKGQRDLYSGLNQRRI
Chain of human CD3 on cells (human PBMC; Jurkat-CD3-NFAT and TCR/CD3 Effector reporter cells) (human) (P04234 22-171, chain 2 of 3, further chain): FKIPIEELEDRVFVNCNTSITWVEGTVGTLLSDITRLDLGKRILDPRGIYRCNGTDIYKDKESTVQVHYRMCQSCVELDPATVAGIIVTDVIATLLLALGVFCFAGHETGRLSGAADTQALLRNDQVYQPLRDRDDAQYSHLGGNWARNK
Chain of human CD3 on cells (human PBMC; Jurkat-CD3-NFAT and TCR/CD3 Effector reporter cells) (human) (P09693 23-182, chain 3 of 3, further chain): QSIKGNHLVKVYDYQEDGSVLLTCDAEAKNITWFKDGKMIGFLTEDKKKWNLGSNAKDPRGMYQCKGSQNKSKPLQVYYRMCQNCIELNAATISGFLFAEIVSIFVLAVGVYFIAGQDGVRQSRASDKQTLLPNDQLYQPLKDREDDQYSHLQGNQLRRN
T1 sequence (P07766 23-207, chain 1 of 3): as the sequence (P07766 23-207, chain 1 of 3) above
T1 sequence (P04234 22-171, chain 2 of 3): as the sequence (P04234 22-171, chain 2 of 3, further chain) above
T1 sequence (P09693 23-182, chain 3 of 3): as the sequence (P09693 23-182, chain 3 of 3, further chain) above

B1: SP34 monoclonal antibody (antibody, human IgG1, lambda, N297A, V domains shown)
VH: EVQLVESGGGLVQPKGSLKLSCAASGFTFNTYAMNWVRQAPGKGLEWVARIRSKYNNYATYYADSVKDRFTISRDDSQSILYLQMNNLKTEDTAMYYCVRHGNFGNSYVSWFAYWGQGTLVTVSA
VL: QAVVTQESALTTSPGETVTLTCRSSTGAVTTSNYANWVQEKPDHLFTGLIGGTNKRAPGVPARFSGSLIGDKAALTITGAQTEDEAIYFCALWYSNLWVFGGGTKLTVLG
notes: Benchmark, bought (Biointron, B6762)
As to B1, in assay [1], the “EC50 (read off the curve)” value was ~300 pM.

B2: Hu155A9B1-1 (antibody, V domains shown)
VH: EVQLQESGPGLVKPSETLSLTCTVSGGSISSYNVHWIRQPPGKGLEWIGRVRYNGDTSYNSALKSRVTISVDTSKNQFSLKLSSVTAADTAVYYCARGPYGGSSEPLFDYWGQGTMVTVSS
VL: DIQMTQSPSSLSASVGDRVTITCKASQNINKYLNWYQQKPGKAPRLLIYTTNNLQTGVPSRFSGSGSGTDFTLTISSLQPEDFATYYCLQHNSGYTFGQGTKLEIK
B2 had a % of SP34 in assay [2] of 14.2%.

B3: Hu155A9B1-13 (antibody, V domains shown)
VH: B2 VH
VL: B2 VL with Y36F, V58I, Y87F
Take B3: the % of SP34 in assay [2] turned out to be 18.4%.

The EC50 (read off the curve) is the concentration at which the effect is half-maximal. A lower EC50 (read off the curve) goes with higher potency in that assay.

The values are drawn from patent US20250011427A1 (CONCEPT TO MEDICINE BIOTECH, published 2025).
